Source: patent US20210324076A1 (AMPHIVENA THERAPEUTICS, published 2021)

B1: CD33/CD3 2×2 T-cell engager 19 (bispecific antibody)
chain: DIQMTQSPSSLSASVGDRVTITCRSSTGAVTTSNYANWVQQKPGKAPKALIGGTNKRAPGVPSRFSGSLIGDKATLTISSLQPEDFATYYCALWYSNLWVFGQGTKVEIKGGSGGSQVQLVQSGAEVKKPGASVKVSCKASGYTFTSYYMHWVRQAPGQGLEWMGIINPSGGSTSYAQKFQGRVTMTRDTSTSTVYMELSSLRSEDTAVYYCARDVVPAAIDYYGMDVWGQGTTVTVSSGGSGQSVLTQPPSASGTPGQRVTISCSGSSSNIGSNTVNWYQQLPGTAPKLLIYSDNQRPSGVPDRFSGSKSGSSASLAISGLQSDDEADYYCATWDDSLNGAVFGGGTKLTVLGGSGGSEVQLVESGGGLVQPGGSLRLSCAASGFTFSTYAMNWVRQAPGKGLEWVGRIRSKYNNYATYYADSVKDRFTISRDDSKNSLYLQMNSLKTEDTAVYYCARHGNFGNSYVSYFAYWGQGTLVTVSSAAAGSHHHHHH
B2: CD33/CD3 2×2 T-cell engager 17 (bispecific antibody)
chain: DIQMTQSPSSLSASVGDRVTITCRSSTGAVTTSNYANWVQQKPGKAPKALIGGTNKRAPGVPSRFSGSLIGDKATLTISSLQPEDFATYYCALWYSNLWVFGQGTKVEIKGGSGGSQVQLVQSGAEVKKPGESLKISCKGSGYSFTSYWIGWVRQMPGKGLEWMGIIYPGDSDTRYSPSFQGQVTISADKSISTAYLQWSSLKASDTAMYYCARHKRGSDAFDIWGQGTTVTVSSGGSGQSVLTQPPSVSGAPGQRVTISCTGSSSNIGAGYDVHWYQQLPGTAPKLLIYGNSNRPSGVPDRFSGSKSGTSASLAITGLQAEDEADYYCQSYDSSLSDVVFGGGTKLTVLGGSGGSEVQLVESGGGLVQPGGSLRLSCAASGFTFSTYAMNWVRQAPGKGLEWVGRIRSKYNNYATYYADSVKDRFTISRDDSKNSLYLQMNSLKTEDTAVYYCARHGNFGNSYVSYFAYWGQGTLVTVSSAAAGSHHHHHH
B3: CD33/CD3 2×2 T-cell engager 07 (bispecific antibody)
chain: DIQMTQSPSSLSASVGDRVTITCRSSTGAVTTSNYANWVQQKPGKAPKALIGGTNKRAPGVPSRFSGSLIGDKATLTISSLQPEDFATYYCALWYSNLWVFGQGTKVEIKGGSGGSQVQLQESGGGVVQPGRSLRLSCAASGFSFSNYGIHWVRQAPGKGLEWVALISYDGNKKFYADSVKGRFAISRDTSKNTVDLQMTSLRPEDTAVYYCAKDRLESAAFDYWGQGTLVTVSSGGSGGSSYELTQPPSVSVAPGQTAMITCGGNNIGSTTVHWYQQKPGQAPVLVVYDDNERPSGIPERFSGSNSGSTATLTINRVEAGDEADYYCQVWDSGSDHVVFGGGTKLTVLGGSGGSEVQLVESGGGLVQPGGSLRLSCAASGFTFSTYAMNWVRQAPGKGLEWVGRIRSKYNNYATYYADSVKDRFTISRDDSKNSLYLQMNSLKTEDTAVYYCARHGNFGNSYVSYFAYWGQGTLVTVSSAAAGSHHHHHH
B4: CD33/CD3 2×2 T-cell engager 15 (bispecific antibody)
chain: DIQMTQSPSSLSASVGDRVTITCRSSTGAVTTSNYANWVQQKPGKAPKALIGGTNKRAPGVPSRFSGSLIGDKATLTISSLQPEDFATYYCALWYSNLWVFGQGTKVEIKGGSGGSQVQLVQSGAEVKKPGASVKVSCKASGYTFTSYDINWVRQAPGQGLEWMGWMNPNSGNTGFAQKFQGRVTMTRDTSTSTVYMELSSLRSEDTAVYYCARDRANTDYSFGMDVWGQGTLVTVSSGGSGQSVLTQPPSASGTPGQRVTISCSGSRSNIGSNTVNWYQQLPGTAPKLLIYGNNQRPSGVPDRFSGSKSGTSASLAISGLQSEDEADYYCATWDDSLIGWVFGGGTKLTVLGGSGGSEVQLVESGGGLVQPGGSLRLSCAASGFTFSTYAMNWVRQAPGKGLEWVGRIRSKYNNYATYYADSVKDRFTISRDDSKNSLYLQMNSLKTEDTAVYYCARHGNFGNSYVSYFAYWGQGTLVTVSSAAAGSHHHHHH
B5: CD33/CD3 2×2 T-cell engager 21 (bispecific antibody)
chain: DIQMTQSPSSLSASVGDRVTITCRSSTGAVTTSNYANWVQQKPGKAPKALIGGTNKRAPGVPSRFSGSLIGDKATLTISSLQPEDFATYYCALWYSNLWVFGQGTKVEIKGGSGGSQVQLVQSGAEVKKPGSSVKVSCKASGGTFSSYAISWVRQAPGQGLEWMGGIYPIFGSANYAQKFQGRVTITADESTSTAYMELSSLRSEDTAVYYCAREYYYDSSEWAFDIWGQGTLVTVSSGGSGQSVLTQPPSASGTPGQRVTISCSGSSSNIGSNIVNWYQQLPGTAPKLLIYSNNQRPSGVPDRFSGSKSGTSASLAISGLQSEDEADYYCAAWDDSLKGYVFGGGTKLTVLGGSGGSEVQLVESGGGLVQPGGSLRLSCAASGFTFSTYAMNWVRQAPGKGLEWVGRIRSKYNNYATYYADSVKDRFTISRDDSKNSLYLQMNSLKTEDTAVYYCARHGNFGNSYVSYFAYWGQGTLVTVSSAAAGSHHHHHH
B6: CD33/CD3 2×2 T-cell engager 24 (bispecific antibody)
chain: DIQMTQSPSSLSASVGDRVTITCRSSTGAVTTSNYANWVQQKPGKAPKALIGGTNKRAPGVPSRFSGSLIGDKATLTISSLQPEDFATYYCALWYSNLWVFGQGTKVEIKGGSGGSQVQLVQSGAEVKKPGSSVKVSCKASGGTFDSYAISWVRQAPGQGLEWMGGIIPIFGSAHYSQKFQGRVTITADESTSTAYMELSSLRSEDTAVYYCAREYYYDSSEWAFDIWGQGTLVTVSSGGSGQSVLTQPPSASGTPGQRVTISCSGSSSNIGDNVVNWYQQLPGTAPKLLIYSTNKRPSGVPDRFSGSKSGSSASLAISGLQSEDEADYYCAAWDDSLSAYVFGGGTKLTVLGGSGGSEVQLVESGGGLVQPGGSLRLSCAASGFTFSTYAMNWVRQAPGKGLEWVGRIRSKYNNYATYYADSVKDRFTISRDDSKNSLYLQMNSLKTEDTAVYYCARHGNFGNSYVSYFAYWGQGTLVTVSSAAAGSHHHHHH
B7: CD33/CD3 2×2 T-cell engager 22 (bispecific antibody)
chain: DIQMTQSPSSLSASVGDRVTITCRSSTGAVTTSNYANWVQQKPGKAPKALIGGTNKRAPGVPSRFSGSLIGDKATLTISSLQPEDFATYYCALWYSNLWVFGQGTKVEIKGGSGGSQVQLVQSGAEVKKPGSSVKVSCKASGGTFSSYGISWVRQAPGQGLEWMGGIIPIFGSAHYAQKFQGRVTITADESTSTAYMELSSLRSEDTAVYYCAREYYYDSSEWAFDIWGQGTLVTVSSGGSGQSVLTQPPSASGTPGQRVTISCSGSSSNIGSNTVKWYQQLPGTAPKLLIYSNNQRSSGVPDRFSGSKSGSSASLAISGLQSEDEADYYCAAWDDSLNGYVFGGGTKLTVLGGSGGSEVQLVESGGGLVQPGGSLRLSCAASGFTFSTYAMNWVRQAPGKGLEWVGRIRSKYNNYATYYADSVKDRFTISRDDSKNSLYLQMNSLKTEDTAVYYCARHGNFGNSYVSYFAYWGQGTLVTVSSAAAGSHHHHHH
B8: CD33/CD3 2×2 T-cell engager 20 (bispecific antibody)
chain: DIQMTQSPSSLSASVGDRVTITCRSSTGAVTTSNYANWVQQKPGKAPKGLIGGTNKRAPGVPSRFSGSLIGTDFTLTISSLQPEDFATYYCALWYSNLWVFGQGTKVEIKGGSGGSQVQLVQSGAEVKKPGASVKVSCKASGYTFTSYYMHWVRQAPGQGLEWMGIINPSGGSTSYAQKFQGRVTMTRDTSTSTVYMELSSLRSEDTAVYYCARDVVPAAIDYYGMDVWGQGTTVTVSSGGSGQSVLTQPPSASGTPGQRVTISCSGSSSNIGSNTVNWYQQLPGTAPKLLIYSDNQRPSGVPDRFSGSKSGSSASLAISGLQSDDEADYYCATWDDSLNGAVFGGGTKLTVLGGSGGSEVQLVESGGGLVQPGGSLRLSCAASGFTFSTYAMNWVRQAPGKGLEWVGRIRSKYNNYATYYADSVKDRFTISRDDSKNSLYLQMNSLKTEDTAVYYCARHGNFGNSYVSWFAYWGQGTLVTVSSAAAGSHHHHHH
B9: CD33/CD3 2×2 T-cell engager 05 (bispecific antibody)
chain: DIQMTQSPSSLSASVGDRVTITCRSSTGAVTTSNYANWVQQKPGKAPKGLIGGTNKRAPGVPARFSGSGSGTDFTLTISSLQPEDFATYYCALWYSNLWVFGQGTKVEIKGGSGGSQVQLVQSGAEVKKPGASVKVSCKASGYTFTSYDINWVRQAPGQGLEWMGWMNPNSGNTGFAQKFQGRVTMTRDTSTSTVYMELSSLRSEDTAVYYCARDRANTDYSFGMDVWGQGTLVTVSSGGSGGQSVLTQPPSASGTPGQRVTISCSGSRSNIGSNTVNWYQQLPGTAPKLLIYGNNQRPSGVPDRFSGSKSGTSASLAISGLQSEDEADYYCATWDDSLIGWVFGGGTKLTVLGGSGGSEVQLVESGGGLVQPGGSLRLSCAASGFTFSTYAMNWVRQAPGKGLEWVGRIRSKYNNYATYYADSVKDRFTISRDDSKNSLYLQMNSLKTEDTAVYYCARHGNFGNSYVSWFAYWGQGTLVTVSSAAAGSHHHHHH
B10: CD33/CD3 2×2 T-cell engager 06 (bispecific antibody)
chain: DIQMTQSPSSLSASVGDRVTITCRSSTGAVTTSNYANWVQQKPGKAPKGLIGGTNKRAPGVPARFSGSGSGTDFTLTISSLQPEDFATYYCALWYSNLWVFGQGTKVEIKGGSGGSQVQLVQSGAEVKKPGASVKVSCKASGYTFTSYDINWVRQAPGQGLEWMGWMNPNSGNTGFAQKFQGRVTMTRDTSTSTVYMELSSLRSEDTAVYYCARDRANTDYSLGMDVWGQGTLVTVSSGGSGGQSVLTQPPSASGTPGQRVTISCSGSRSNIGSNTVNWYQQLPGTAPKLLIYGNNQRPSGVPDRFSGSKSGTSASLAISGLQSEDEADYYCATWDDSLIGWVFGGGTKLTVLGGSGGSEVQLVESGGGLVQPGGSLRLSCAASGFTFSTYAMNWVRQAPGKGLEWVGRIRSKYNNYATYYADSVKDRFTISRDDSKNSLYLQMNSLKTEDTAVYYCARHGNFGNSYVSWFAYWGQGTLVTVSSAAAGSHHHHHH
B11: CD33/CD3 2×2 T-cell engager 23 (bispecific antibody)
chain: DIQMTQSPSSLSASVGDRVTITCRSSTGAVTTSNYANWVQQKPGKAPKGLIGGTNKRAPGVPSRFSGSLIGTDFTLTISSLQPEDFATYYCALWYSNLWVFGQGTKVEIKGGSGGSQVQLVQSGAEVKKPGSSVKVSCKASGGTFSSYGISWVRQAPGQGLEWMGGIIPIFGSAHYAQKFQGRVTITADESTSTAYMELSSLRSEDTAVYYCAREYYYDSSEWAFDIWGQGTLVTVSSGGSGQSVLTQPPSASGTPGQRVTISCSGSSSNIGSNTVKWYQQLPGTAPKLLIYSNNQRSSGVPDRFSGSKSGSSASLAISGLQSEDEADYYCAAWDDSLNGYVFGGGTKLTVLGGSGGSEVQLVESGGGLVQPGGSLRLSCAASGFTFSTYAMNWVRQAPGKGLEWVGRIRSKYNNYATYYADSVKDRFTISRDDSKNSLYLQMNSLKTEDTAVYYCARHGNFGNSYVSWFAYWGQGTLVTVSS

These binders were tested against human CD33 (human, UniProt P20138 18-364) (assay: cell-based or functional assay).
human CD33, sequence (P20138 18-364): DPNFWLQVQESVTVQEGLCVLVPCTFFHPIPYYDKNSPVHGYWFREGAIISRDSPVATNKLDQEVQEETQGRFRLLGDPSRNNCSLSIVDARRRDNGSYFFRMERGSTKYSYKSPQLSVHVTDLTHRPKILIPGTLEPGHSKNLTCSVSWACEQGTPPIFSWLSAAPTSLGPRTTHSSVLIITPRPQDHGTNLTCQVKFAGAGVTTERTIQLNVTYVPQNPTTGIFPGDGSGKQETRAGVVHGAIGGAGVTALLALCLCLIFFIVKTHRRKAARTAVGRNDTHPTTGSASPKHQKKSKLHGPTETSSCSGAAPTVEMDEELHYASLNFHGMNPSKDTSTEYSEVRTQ
In the case of B1, the “IC50 lysis of KG-1 cells with human T cells, E:T 5:1, 24 h” value is reported as roughly 0.005 nM.

The binders below were run against human CD3 (human, UniProt P07766 23-207; P09693 23-182; P04234 22-171; P20963 22-164) (assay: cell-based or functional assay).
human CD3, sequence (P07766 23-207, chain 1 of 4): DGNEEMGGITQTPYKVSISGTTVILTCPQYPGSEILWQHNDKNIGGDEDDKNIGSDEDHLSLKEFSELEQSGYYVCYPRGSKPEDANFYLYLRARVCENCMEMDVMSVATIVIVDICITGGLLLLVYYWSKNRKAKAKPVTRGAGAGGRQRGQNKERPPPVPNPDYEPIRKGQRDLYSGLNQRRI
human CD3, sequence (P09693 23-182, chain 2 of 4): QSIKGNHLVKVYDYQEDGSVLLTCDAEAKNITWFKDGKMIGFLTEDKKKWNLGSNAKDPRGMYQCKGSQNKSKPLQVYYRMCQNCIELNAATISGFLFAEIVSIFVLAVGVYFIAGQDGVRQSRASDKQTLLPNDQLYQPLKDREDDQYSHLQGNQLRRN
human CD3, sequence (P04234 22-171, chain 3 of 4): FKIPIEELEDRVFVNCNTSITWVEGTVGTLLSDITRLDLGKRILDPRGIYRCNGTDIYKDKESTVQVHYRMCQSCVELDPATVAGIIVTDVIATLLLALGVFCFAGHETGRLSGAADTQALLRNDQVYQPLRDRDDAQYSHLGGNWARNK
human CD3, sequence (P20963 22-164, chain 4 of 4): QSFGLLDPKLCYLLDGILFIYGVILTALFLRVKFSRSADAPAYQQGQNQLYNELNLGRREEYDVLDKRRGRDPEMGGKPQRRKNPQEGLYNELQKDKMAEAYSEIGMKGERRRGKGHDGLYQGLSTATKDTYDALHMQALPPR
In the case of B2, the “CD25 Induction EC50 (PBMC, 24 h)” value is reported as 0.03 nM and the “CD69 Induction EC50 (PBMC, 24 h)” value is reported as 0.114 nM.
For B3, the “CD25 Induction EC50 (PBMC, 24 h)” value was 0.134 nM and the “CD69 Induction EC50 (PBMC, 24 h)” value was 0.065 nM.
In the case of B4, the “CD25 Induction EC50 (PBMC, 24 h)” value is reported as 0.006 nM and the “CD69 Induction EC50 (PBMC, 24 h)” value is reported as 0.007 nM.
With B5 the “CD69 Induction EC50 (PBMC, 24 h)” value was 0.225 nM.
In the case of B6, the “CD69 Induction EC50 (PBMC, 24 h)” value is reported as 0.057 nM.
With B7 the “CD25 Induction EC50 (PBMC, 24 h)” value was 0.01 nM and the “CD69 Induction EC50 (PBMC, 24 h)” value was 0.004 nM.
B1 was tested, and the “CD25 Induction EC50 (PBMC, 24 h)” value was 0.009 nM and the “CD69 Induction EC50 (PBMC, 24 h)” value was 0.005 nM.
With B8 the “CD25 Induction EC50 (PBMC, 24 h)” value was 0.098 nM and the “CD69 Induction EC50 (PBMC, 24 h)” value was 0.075 nM.
In the case of B9, the “CD25 Induction EC50 (PBMC, 24 h)” value is reported as 0.116 nM and the “CD69 Induction EC50 (PBMC, 24 h)” value is reported as 0.074 nM.
In the case of B10, the “CD25 Induction EC50 (PBMC, 24 h)” value is reported as 0.039 nM and the “CD69 Induction EC50 (PBMC, 24 h)” value is reported as 0.021 nM.
With B11 the “CD25 Induction EC50 (PBMC, 24 h)” value was 0.041 nM and the “CD69 Induction EC50 (PBMC, 24 h)” value was 0.017 nM.
